Data published in US20060040319A1, “Multiple sensor-containing active modified polypeptides, preparation and uses thereof” (priority 2000, published 2006).
Where no end group is shown, it is not given here.

Experiments:
[1] = target: T1, N-SH3 domain of Crk-II (binding to c-Abl) (Mus musculus, UniProt Q64010); test: Peptide inhibition study: Crk-II phosphorylation by full length c-Abl in presence of N-SH3 ligand (Rh-(Crk-II)-Fl biosensor); assay type: biochemical; conditions: fluorescence-based assay
T1 construct: extra Gly plus fluorescein peptide (Cys-Fl-PS, remainder after PreScission site) (C); made in house; host or cells: E. coli BL21 (Crk-II-intein fusion), then ligation of synthetic peptides
T1 sequence (Q64010 with tags, fused parts or gaps): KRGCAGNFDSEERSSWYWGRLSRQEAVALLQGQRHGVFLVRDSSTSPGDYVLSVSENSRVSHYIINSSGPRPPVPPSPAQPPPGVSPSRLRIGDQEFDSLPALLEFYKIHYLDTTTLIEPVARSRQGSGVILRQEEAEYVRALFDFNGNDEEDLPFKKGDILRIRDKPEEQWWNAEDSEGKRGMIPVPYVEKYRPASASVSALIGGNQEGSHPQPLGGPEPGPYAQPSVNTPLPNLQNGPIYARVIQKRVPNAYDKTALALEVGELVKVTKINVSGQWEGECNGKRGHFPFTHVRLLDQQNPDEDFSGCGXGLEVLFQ
Protocol: (§1) Purified Rh-(Crk-II)-Fl prepared as described in Example I was treated with either full length recombinant (Baculovirus/SF9) mouse c-Abl or a GST fusion of mouse c-Abl containing only the SH2 and kinase domains (expressed in E. coli BL21 essentially as described (19)). In a typical experiment, the appropriate c-Abl construct was incubated in reaction buffer (2 mM DTT, 0.2 mg/ml BSA, 10 mM Mg^2+, 50 mM Tris, pH 7.4, either with or without ATP (500 μM)) for 5 min at 30° C. before addition of Rh-(Crk-II)-Fl (final concentration=0.25 μM). In order to ensure that equal amounts of active c-Abl enzyme were added to each reaction, preliminary titration experiments were carried out using an optimized peptide substrate for c-Abl (EAIYAAPFAKKK (SEQ ID No:2) (20)). […] In all cases, aliquots of the reaction mixtures were removed at ˜1 min and 60 min, quenched with EDTA (final conc.=40 mM), and then analyzed by native-PAGE and/or Western blotting and fluorescence spectroscopy. […]
(§2) Fluorescence Spectroscopy. […] Excitation was at 490 nm with a 2.5 nm slit and the fluorescence emission was monitored at 520 nm and 580 nm through a 4 nm slit. […] Rh-(Crk-II)-Fl was treated with full length recombinant c-Abl and aliquots of the reaction mixture were analyzed by fluorescence spectroscopy and western blotting at ˜1 min and 60 min time-points. […]

[2] = target: T2, GST fusion of mouse c-Abl containing only the SH2 and kinase domains (Mus musculus, UniProt P00520); test: Kinase assay with truncated c-Abl containing only the SH2 and kinase domains; assay type: biochemical; conditions: truncated c-Abl, after 60 min
T2 construct: a GST fusion of mouse c-Abl containing only the SH2 and kinase domains; made in house; host or cells: E. coli BL21
T2 sequence (P00520 127-493): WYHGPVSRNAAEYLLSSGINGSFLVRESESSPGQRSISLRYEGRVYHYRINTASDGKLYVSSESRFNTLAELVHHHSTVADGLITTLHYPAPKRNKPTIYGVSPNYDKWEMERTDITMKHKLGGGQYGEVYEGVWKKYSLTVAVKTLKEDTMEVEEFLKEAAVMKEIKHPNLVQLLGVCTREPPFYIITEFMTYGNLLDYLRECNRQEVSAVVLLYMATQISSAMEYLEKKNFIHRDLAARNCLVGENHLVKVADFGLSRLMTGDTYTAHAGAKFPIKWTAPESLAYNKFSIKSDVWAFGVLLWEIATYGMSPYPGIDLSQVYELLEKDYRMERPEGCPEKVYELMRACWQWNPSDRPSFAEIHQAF
Protocol: as §1, §2

| effect on Crk-II phosphorylation by c-Abl [1] | phosphorylation of optimized peptide substrate [2] | Substance |
| --- | --- | --- |
| partially inhibit Crk-II phosphorylation | – | PPPALPPKRRR-NH2 [high affinity N-SH3 ligand] |
| – | completely phosphorylated | EAIYAAPFAKKK (Peptide Substrate) [optimized peptide substrate for c-Abl, reference compound] |
